Biological target: SARS-CoV-2 K417N+E484K+N501Y+D614G mutant pseudovirus spike (spikeΔ19) (SARS-CoV-2) (UniProt P0DTC2)
Assay: cell-based or functional assay

## S309 dimer (antibody)
  NT50 (B.1.351) (nM), pseudovirus neutralization: 0.36 nM

Reference: patent publication US20220213176A1
